The target of this assay is EGFR (human) (UniProt P00533). Kind of assay: cell-based or functional assay.

cetuximab-saporin (antibody): the cell killing (MTS) IC50, titrated alone, MDA-MB-468 cells (EGFR++) came to 0.3 nM.

(Values after patent publication US20230248844A1, “C[…] ADC OR AN AOC COMPRISING A VHH, AND A SAPONIN OR A LIGAND-SAPONIN CONJUGATE” (SAPREME TECHNOLOGIES B.V., priority 2020, published 2023).)
